Source: PMC2174279
One block for each substance: values may come before it.

Experiments:
[1] = biological target: Arc19p (LexA two-hybrid bait) (S. cerevisiae) (UniProt P33204); assay: two-hybrid
[2] = biological target: peptide PRP2-1 (…), LexA bait; assay: two-hybrid
[3] = biological target: Arc40p (LexA two-hybrid bait) (S. cerevisiae) (UniProt P38328); assay: two-hybrid
[4] = biological target: Bee1p (1-165) (S. cerevisiae); assay: two-hybrid
[5] = biological target: peptide PRP2 (…), LexA bait; assay: two-hybrid
[6] = biological target: Bee1p (1-633) (S. cerevisiae); assay: two-hybrid
[7] = biological target: Bee1p (166-633) (S. cerevisiae); assay: two-hybrid
Bee1p-HA (S. cerevisiae) = assay: co-IP
[8] = biological target: Arc40p-HA (S. cerevisiae) (UniProt P38328); assay: co-IP

- LacZ expression (two-hybrid) [1]: 152 Miller units
- LacZ expression (two-hybrid) [2]: 219 Miller units
- LacZ expression (two-hybrid) [3]: 458 Miller units
- LacZ expression (two-hybrid) [4]: 1200 Miller units
- LacZ expression (two-hybrid) [5]: 210 Miller units
- LacZ expression (two-hybrid) [6]: 715 Miller units
- LacZ expression (two-hybrid) [7]: 113 Miller units
Substance: Myo3p-SH3-AD (1118-1271) (from UniProt P36006 1118-1271) (domain or fragment)

- LacZ expression (two-hybrid) [3]: 25 Miller units
Substance: Myo3p-AD-32 (1239-1271) (from UniProt P36006 1239-1271) (domain or fragment)

- percent of the total Myo3p in the extract coimmunoprecipitated (Bee1p-HA (S. cerevisiae)): 1%
- percent of the total Myo3p in the extract coimmunoprecipitated [8]: 1%
Substance: Myo3p (from UniProt P36006 1-1272) (natural protein)

- percent coimmunoprecipitated (Bee1p-HA (S. cerevisiae)): 1%
Substance: Myo3pΔAD (from UniProt P36006 1-1188) (domain or fragment)

- LacZ expression (two-hybrid) [3]: 18 Miller units
Substance: Bee1p-WH2-AD (531-633) (domain or fragment)

- percent coimmunoprecipitated [8]: 0.1%
Substance: Myo3p(SH3-W1157S) (from UniProt P36006 1-1272) (natural protein)

- LacZ expression (two-hybrid) [6]: 1760 Miller units
Substance: Myo3p-SH3 (1118-1188) (from UniProt P36006 1118-1188) (domain or fragment)

- LacZ expression (two-hybrid) [3]: 366 Miller units
Substance: Myo3p-SH3(W1157S)-AD (1118-1271) (from UniProt P36006 1118-1271) (domain or fragment)

- LacZ expression (two-hybrid) [3]: 151 Miller units
Substance: Myo3p-AD (1182-1271) (from UniProt P36006 1182-1271) (domain or fragment)
